Experimental findings from US20100261178A1 are described below.

In experiment [1] the target is human adiponectin receptor AdipoR1 (human) (UniProt Q96A54).
Experiment [2] concerns the target human adiponectin receptor AdipoR2 (human) (UniProt Q86V24).

In experiment [1], adiponectin (ligand) yielded an EC50 of adiponectin for repression of FET3-lacZ of 0.7 pM and a log EC50 pM of adiponectin for repression of FET3-lacZ of -0.13 log EC50 pM. In experiment [2], this substance yielded an EC50 of adiponectin for repression of FET3-lacZ of 2.4 pM and a log EC50 pM of adiponectin for repression of FET3-lacZ of 0.38 log EC50 pM.
